# Laboratory results: paper PMC8659124, “Structural Analysis of Saccharomyces cerevisiae Dihydroorotase Reveals Molecular Insights into the Tetramerization Mechanism” (Molecules, 2021)
# “And” between values parts separate entries of the source, which are not always exact repeats. Equal entries are not always repeated.
# B1: Saccharomyces cerevisiae dihydroorotase (enzyme)
# chain: MVQEIDLGLTCDMHVHVREGAMCELVTPKIRDGGVSIAYIMPNLQPPITTLDRVIEYKKTLQKLAPKTTFLMSFYLSKDLTPDLIHEAAQQHAIRGVKCYPAGVTTNSAAGVDPNDFSAFYPIFKAMQEENLVLNLHGEKPSVHDGDKEPIHVLNAEEAFLPALKKLHNDFPNLKIILEHCTSESAIKTIEDINKNVKKATDVKVAATLTAHHLFLTIDDWAGNPVNFCKPVAKLPNDKKALVKAAVSGKPYFFFGSDSAPHPVQNKANYEGVCAGVYSQSFAIPYIAQVFEEQNALENLKGFVSDFGISFYEVKDSEVASSDKAILFKKEQVIPQVISDGKDISIIPFKAGDKLSWSVRWEPR
# modifications: carbamylated lysine (Kcx) at 98
# notes: Dihydroorotase of Saccharomyces cerevisiae, the monofunctional DHOase encoded by an independent gene; monomer about 40 kDa; Two Zn ions and malate in the active site of each subunit in the crystals; also called ScDHOase; DHOase
# B2: Salmonella enterica serovar Typhimurium LT2 DHOase (enzyme, UniProt P06204 1-348, looked up)
# chain: MTAPSQVLKIRRPDDWHVHLRDGDMLKTVVPYTSEIYGRAIVMPNLASPITTVDAAIAYRQRILDAVPAGHDFTPLMTCYLTDSLDADELERGFHEGVFTAAKLYPANATTNSSHGVTSVDAIMPVLERMEKLGIPLLVHGEVTHADVDIFDREARFIDTVMEPLRQRLTALKVVFEHITTKDAAQYVRDGNDYLAATITPQHLMFNRNDMLVGGIRPHLYCLPILKRNIHQQALRELVASGFTRAFLGTDSAPHSRHRKETSCGCAGCFNAPSALGSYAAVFEEMNALAHFEAFCSLNGPQFYGLPMNTGWVELVRDEQQIPGNIALADDSLVPFLAGETVRWSVKK
# notes: Dihydroorotase of Salmonella enterica serovar Typhimurium LT2; also called StDHOase
# Tests used:
# [1] = biological target: DHOase domain of human CAD (human); experiment: cross-linking; glutaraldehyde 1%, individual DHOase 3 uM, 4 C, 20 min; Coomassie Blue-stained SDS-PAGE
# [2] = biological target: Klebsiella pneumonia DHOase (Klebsiella pneumonia); experiment: as above
# [3] = biological target: the molecule itself; experiment: cross-linking; glutaraldehyde 0.5%, DHOase 3 uM, 4 C, 20 min; Coomassie Blue-stained SDS-PAGE
# [4] = biological target: the molecule itself; experiment: SEC; Superdex 200 prep grade, protein 10 mg/mL in 20 mM MES, 100 mM NaCl, pH 6.0, 0.5 mL/min; calibrated with proteins of known molecular weight
# [5] = biological target: the molecule itself; experiment: crystal structure; complex form I with malate, 16% PEG 4000, 100 mM imidazole-malate, pH 7.0, room temperature; PDB 6L0A, 1.79 A, space group P2(1), four molecules per asymmetric unit
# [6] = biological target: the molecule itself; experiment: cross-linking; glutaraldehyde 1%, individual DHOase 3 uM, 4 C, 20 min; Coomassie Blue-stained SDS-PAGE
molecule,measurement,setting,value
DHOase domain of human CAD (domain or fragment),stoichiometry N,[1],2
Klebsiella pneumonia DHOase (enzyme),stoichiometry N,[2],2
B1,stoichiometry N,[3],2
same,stoichiometry N,[4],~2 and ~4.1
same,stoichiometry N,[5],4
B2,stoichiometry N,[6],2
